Test results as given in article PMC11757143, “Generation and characterization of OX40-ligand fusion protein that agonizes OX40 on T-Lymphocytes” (Frontiers in Immunology, 2025).

T1: OX40-Fc (Mus musculus, UniProt P47741)
T1 construct: made in house
T1 sequence (P47741 20-211 limits assumed): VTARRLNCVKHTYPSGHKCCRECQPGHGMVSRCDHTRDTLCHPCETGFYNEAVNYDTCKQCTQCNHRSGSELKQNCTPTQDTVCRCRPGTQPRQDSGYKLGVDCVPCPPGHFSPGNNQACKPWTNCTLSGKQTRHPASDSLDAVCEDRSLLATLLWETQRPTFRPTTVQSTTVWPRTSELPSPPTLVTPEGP

B1: Fc-scOX40L: Fusion protein: Fc, PA, single-chain OX40L trimer (three OX40L joined by GGGSGGG linkers), His6; dimer of trimers (protein)
chain: SSSPAKDPPIQRLRGAVTRCEDGQLFISSYKNEYQTMEVQNNSVVIKCDGLYIIYLKGSFFQEVKIDLHFREDHNPISIPMLNDGRRIVFTVVASLAFKDKVYLTVNAPDTLCEHLQINDGELIVVQLTPGYCAPEGSYHSTVNQVPLGGGSGGGSSSPAKDPPIQRLRGAVTRCEDGQLFISSYKNEYQTMEVQNNSVVIKCDGLYIIYLKGSFFQEVKIDLHFREDHNPISIPMLNDGRRIVFTVVASLAFKDKVYLTVNAPDTLCEHLQINDGELIVVQLTPGYCAPEGSYHSTVNQVPLGGGSGGGSSSPAKDPPIQRLRGAVTRCEDGQLFISSYKNEYQTMEVQNNSVVIKCDGLYIIYLKGSFFQEVKIDLHFREDHNPISIPMLNDGRRIVFTVVASLAFKDKVYLTVNAPDTLCEHLQINDGELIVVQLTPGYCAPEGSYHSTVNQVPL
modifications: left off: Fc (human IgG1: hinge, CH2, CH3), N-terminal, kept | PA tag (…), internal (between Fc and the first OX40L), kept | His6, C-terminal, kept
notes: Fusion protein: Fc, PA, single-chain OX40L trimer (three OX40L joined by GGGSGGG linkers), His6; dimer of trimers
B2: scOX40L-Fc: Fusion protein: OX40L, Linker, OX40L, Linker, OX40L, Fc, PA, and His6 (protein)
chain: B1 chain
modifications: left off: Fc (human IgG1: hinge, CH2, CH3), C-terminal, kept | PA tag (…), C-terminal, kept | His6, C-terminal, kept

Assays:
[1] = tested on: antigen-specific T cell responses of draining lymph node cells; assay: Antigen recall responses of dLN cells from TNP-KLH/CFA-immunized mice (cytokine ELISA, MTT proliferation); format: in vivo, C57BL/6 mice; settings: for antigen-specific T cell responses (recall IFN-γ, IL-17, IL-4 production and proliferation of dLN cells): 20 µg i.p. on days 1 and 3, TNP-KLH/CFA day 0, dLN day 7, KLH recall 3 days
Excerpt: The following reagents were used for the measurement of cytokines from T cells: anti-IL-2 (JES6-1A12, 503701, BioLegend, San Diego, CA, U.S.A.) capture antibody, biotin-anti-IL-2 (JES6-5H4, 503803, BioLegend) detection antibody, anti-IFN-γ (R4-6A2, 505702, BioLegend) capture antibody, biotin-anti-IFN-γ (XMG1.2, 505804, BioLegend) detection antibody, anti-IL-4 (11B11, 504101, BioLegend) capture antibody, biotin-anti-IL-4 (BVD6-24G2, 504201, BioLegend) detection antibody, anti-IL-17A (TC11-18H10.1, 506901, BioLegend) capture antibody, biotin-anti-IL-17A (TC11-8H4, 507001, BioLegend) detection antibody, HRP streptavidin (405210, BioLegend), and 3,3’,5,5’-tetramethylbenzidine (TMB, 421101, BioLegend). The absorbance was measured at 450 nm or 620 nm using a FilterMax F5 (Molecular Devices, San Jose, CA, U.S.A.).
Groups of C57BL/6 mice from both male and female mice aged between 5 and 15 weeks were immunized subcutaneously at the footpad with 100 µg of 2,4,6-trinitrophenyl-conjugated keyhole limpet hemocyanin (TNP-KLH) emulsified in complete Freund’s adjuvant (CFA) (F5881, Merck) on day 0. Recombinant proteins in PBS were injected intraperitoneally on days 1 and 3. On day 7, pooled dLN cells were plated in 200 µL volumes in 96-well plates in triplicate in the presence or absence of KLH. Cells were harvested at 18 hours for the AIM assay. Culture supernatants were harvested at 72 hours for cytokine ELISA. Cell viability on day 3 was assessed with a 3-(4,5-dimethylthiazol-2-yl)-2,5-diphenyl-tetrazolium (MTT) (M2128, Merck) assay.

OX40-Fc = molecular target: T1, OX40-Fc; design: method as in PMID 36450532, PMID 37371066; settings: previous studies; ref [23], [24]; cited from earlier work
[2] = tested on: antigen-specific CD4+ T cells; assay: Activation-induced marker (AIM) assay on dLN cells from TNP-KLH/CFA-immunized mice; format: in vivo, C57BL/6 mice; settings: 20 µg i.p. on days 1 and 3, KLH 18 hours
Procedure: To perform the activation-induced marker (AIM) assay, a valuable method to detect antigen-specific CD4^+ T cells ([29], [30]), draining lymph node (dLN) cells were initially incubated with IgG from rat serum (14131, Merck) to block nonspecific binding. The following antibodies were used for cell-surface staining: PE/Cyanine7 anti-mouse CD4 (GK1.5, 100421, BioLegend), Alexa Fluor® 488 anti-mouse CD25 (PC61, 102018, BioLegend), and APC anti-mouse CD134 (OX-40) (OX-86, 119413, BioLegend). For Foxp3 staining, cells were fixed and permeabilized with the eBioscience™ Foxp3/Transcription Factor Staining Buffer Set (00-5523-00, Thermo Fisher), then stained with PE Anti-Mo/Ra FOXP3, eBioscience™ (FJK-16s, 12-5773-08, Thermo Fisher). Data were acquired on a FACS Canto II or a Celesta (BD Biosciences, Franklin Lakes, NJ, U.S.A.) and analyzed with BD FACS Diva software version 9 or Flowing software version 2 (Turku Bioscience, Turku, Finland, http://flowingsoftware.btk.fi/).
Groups of C57BL/6 mice from both male and female mice aged between 5 and 15 weeks were immunized subcutaneously at the footpad with 100 µg of 2,4,6-trinitrophenyl-conjugated keyhole limpet hemocyanin (TNP-KLH) emulsified in complete Freund’s adjuvant (CFA) (F5881, Merck) on day 0. […] Cell viability on day 3 was assessed with a 3-(4,5-dimethylthiazol-2-yl)-2,5-diphenyl-tetrazolium (MTT) (M2128, Merck) assay.

| Molecule | antigen-specific T cell responses (recall IFN-γ, IL-17, IL-4 production and proliferation of dLN cells) [1] | induction of IL-4-producing cells ([1]; TNP-KLH/CFA-immunized mice, Figures 7, 9) | specific interaction with OX40 (OX40-Fc) | frequency of OX40+CD25+Foxp3+CD4+ cells (AIM assay) [2] | frequency of OX40+CD25+Foxp3-CD4+ cells (AIM assay) ([2]; compared to control (PBS) or OX86) |
| --- | --- | --- | --- | --- | --- |
| B1 | elicited stronger antigen-specific T cell responses than Fc-MBL-OX40L (B) and scOX40L-Fc (D) | promoted the induction of IL-4-producing cells | specifically interact with OX40 | significantly enhanced frequency | significantly increased frequency |
| B2 | triggered significantly higher T cell responses compared to the None (PBS) control group |  |  |  |  |
